# T1: C57BL/6 mouse SIRPα ECD recombinant protein (6×His tagged) (C57BL/6 mouse, UniProt P97797 32-373)
# T1 construct: extracellular domain; Bought from Biointron; not shown: 6×His tag
# T1 sequence (looked up): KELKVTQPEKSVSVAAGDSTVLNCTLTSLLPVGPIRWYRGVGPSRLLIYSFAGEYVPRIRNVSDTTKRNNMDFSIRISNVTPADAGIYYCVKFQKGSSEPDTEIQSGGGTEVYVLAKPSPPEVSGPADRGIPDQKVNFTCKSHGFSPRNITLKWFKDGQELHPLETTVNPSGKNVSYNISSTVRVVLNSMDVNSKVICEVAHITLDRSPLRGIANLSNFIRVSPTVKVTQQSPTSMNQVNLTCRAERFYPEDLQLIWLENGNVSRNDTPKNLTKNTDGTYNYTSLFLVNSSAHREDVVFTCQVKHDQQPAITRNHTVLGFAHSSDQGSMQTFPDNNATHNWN
# How the values were obtained:
# [1] = molecular target: T2, full length human SIRPα v1 stably expressed on CHOK1 or 293F cells (human, UniProt P78324 31-504); assay: FACS, CHOK1-hSIRPα v1 cells
# T2 construct: whole, on cells; also called CHOK1-human SIRPα v1; CHOK1-hSIRPα v1
# [2] = molecular target: T3, human SIRPβ ECD recombinant protein (6×His tagged) (human, UniProt O00241 30-371); assay: ELISA, hSIRPβ ECD
# T3 construct: extracellular domain; Bought from Sino Biological; also called hSIRPβ ECD; not shown: 6×His tag
# Excerpt: (§1) Binding activity of the purified chimeric antibodies against SIRPβ and SIRPBI was detected by ELISA assay using recombinant proteins of human SIRPβ ECD (FIGS. 3A and 3B), human SIRPBI ECD (FIGS. 3D and 3E) and FACS assay using CHOK 1 cells stably expressing human SIRPB (FIG. 3C).
# [3] = molecular target: T4, human SIRPγ stably expressed on 293F cells (human, UniProt Q9P1W8 29-387); assay: FACS, 293F-human SIRPγ cells
# T4 construct: whole, on cells
# [4] = molecular target: T5, human SIRPβL ECD recombinant protein (6×His tagged) (human, UniProt Q5TFQ8 30-371); assay: ELISA, hSIRPβI ECD
# T5 construct: given variously as SIRPBL, SIRPBI and SIRPβI; Bought from Biointron; also called human SIRPBL ECD; human SIRPBI ECD
# Excerpt: as §1
# [5] = molecular target: full length human SIRPα v1 with a small beta-gal fragment (ED) fused to its C-terminal, expressed in K562 … (human, UniProt P78324 31-504); assay: cell-based or functional assay
# [6] = molecular target: T1, C57BL/6 mouse SIRPα ECD recombinant …; assay: ELISA, recombinant C57BL/6 mouse SIRPα ECD
# Excerpt: Species cross reactivity of purified chimeric antibodies was detected by ELISA assay using recombinant protein of C57BL/6 mouse SIRPα ECD (FIG. 5A) and FACS assay using CHOK 1 cells stably expressing cyno SIRPα (FIGS. 5B and 5C). All antibodies as tested bind to cyno SIRPα at different levels but have no species cross reactivity against C57BL/6 mouse SIRPα.
# [7] = molecular target: T6, human SIRPα v2 ECD recombinant protein (tag not given) (human); assay: competitive ELISA, mFc-CD47 ECD on coated SIRPα v2 ECD
# T6 construct: extracellular domain; also called ELISA microplate coated human SIRPα v2 ECD
# Method: (§2) Competitive ELISA assay was used to determine whether the purified chimeric antibodies can block CD47 and SIRPα interaction. Briefly, antibody and mFc tagged human CD47 ECD recombinant protein were co-incubated with ELISA microplate coated human SIRPα v1 ECD (FIGS. 6A and 6B) or human SIRPα v2 ECD (FIGS. 7A and 7B) recombinant protein. After washing, HRP labeled anti-mouse Fc 2nd antibody (Sigma) was added and incubated at 37° C. for 1 hour. Then, 100 μl/well of TMB solution (Biotechnology) was added. After incubation for 15 minutes at room temperature, the reaction was stopped by the addition of 50 μl of 1N HCl. OD 450 nm was read. Blocking ratio was determined by blockade of human CD47 ECD recombinant protein binding to ELISA microplate coated human SIRPα ECD recombinant protein. Other than 005, all antibodies as tested can block interaction between human CD47 and different human SIRPα variants.
# [8] = molecular target: Human SIRPα v1 (antigen of the Octet and Biacore affinity measurements) (human, UniProt P78324 31-370, limits assumed); assay: BLI (Octet), 1:1 binding model
# Method: The purified chimeric antibodies were characterized for binding affinity against human SIRPα v1, human SIRPα v2 using Bio-Layer Interferometry technology (Octet system). The association and dissociation curves were fit with 1:1 binding model, and the Ka/Kd/KD values for each antibody were calculated.
# [9] = molecular target: T7, human SIRPα v1 ECD recombinant protein (tag not given) (human, UniProt P78324 31-373); assay: competitive ELISA, mFc-CD47 ECD on coated SIRPα v1 ECD
# T7 construct: extracellular domain; also called biotin labeled soluble human SIRPα v1 ECD recombinant protein; ELISA microplate coated human SIRPα v1 ECD
# Method: as §2
# [10] = molecular target: T8, mFc tagged human SIRPα v1 ECD recombinant protein (human, UniProt P78324 31-373); assay: competitive ELISA binning, mFc-SIRPα v1 ECD; competitor 042c
# T8 construct: extracellular domain; Bought from Biointron; not shown: mouse IgG Fc (mFc) tag
# Method: (§3) Competitive ELISA assay was used for epitope binning of purified chimeric antibodies. Briefly excessive competitor antibody and mFc tagged human SIRPα v1 ECD recombinant protein were co-incubated with ELISA microplate coated antibody. After washing, HRP labeled anti-mouse Fc 2nd antibody (Sigma) was added and incubated at 37° C. for 1 hour. Then, 100 μl/well of TMB solution (Biotechnology) was added. After incubation for 15 minutes at room temperature, the reaction was stopped by the addition of 50 μl of 1N HCl. OD 450 nm was read. Competition ratio was calculated. The antibodies that can compete each other for binding to SIRPα may have related binding epitopes.
# [11] = molecular target: T9, cyno SIRPγ ECD recombinant protein (cyno); assay: ELISA, cyno SIRPγ ECD
# T9 construct: extracellular domain
# [12] = molecular target: T10, human SIRPβ stably expressed on CHOK1 cells (human, UniProt O00241 30-398); assay: FACS, CHOK1-hSIRPβ cells
# T10 construct: whole, on cells; also called CHOK1-human SIRPB; CHOK1-hSIRPβ
# Excerpt: as §1
# [13] = molecular target: T8, mFc tagged human SIRPα v1 ECD …; assay: competitive ELISA binning, mFc-SIRPα v1 ECD; competitor hu1H9G4
# Method: as §3
# [14] = molecular target: T8, mFc tagged human SIRPα v1 ECD …; assay: competitive ELISA binning, mFc-SIRPα v1 ECD; competitor 025c
# Method: as §3
# [15] = molecular target: T2, full length human SIRPα v1 stably …; assay: competitive FACS, mFc-CD47 ECD on CHOK1-human SIRPα v1 cells
# Method: Competitive FACS assay was also set up to further compare the blocking activity of the humanized antibodies and reference antibodies. Briefly antibody and mFc tagged human CD47 ECD recombinant protein were co-incubated with CHOK1 cells stably expressing human SIRPα v1 (FIG. 16A) or human SIRPα v2 (FIG. 16B). After washing, dye labeled anti-mouse Fc 2nd antibody (Sigma) was added and incubated at 37° C. for 1 hour. Fluorescence intensity was detected. Blocking ratio was determined by blockade of human CD47 ECD recombinant protein binding to SIRPα expressed CHOK1 cells. […] In particular, HEFLB doesn't work at all for human SIRPα v2.
# T5 sequence (Q5TFQ8 30-371 limits assumed): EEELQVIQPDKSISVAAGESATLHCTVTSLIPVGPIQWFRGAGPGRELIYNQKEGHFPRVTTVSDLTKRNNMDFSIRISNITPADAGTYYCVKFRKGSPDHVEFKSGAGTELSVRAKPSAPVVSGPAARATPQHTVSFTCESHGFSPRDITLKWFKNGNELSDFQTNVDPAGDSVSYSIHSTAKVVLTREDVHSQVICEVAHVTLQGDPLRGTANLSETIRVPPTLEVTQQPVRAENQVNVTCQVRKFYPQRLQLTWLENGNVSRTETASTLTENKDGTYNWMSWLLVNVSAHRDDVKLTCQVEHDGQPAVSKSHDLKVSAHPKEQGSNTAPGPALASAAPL
# T3 sequence (O00241 30-371): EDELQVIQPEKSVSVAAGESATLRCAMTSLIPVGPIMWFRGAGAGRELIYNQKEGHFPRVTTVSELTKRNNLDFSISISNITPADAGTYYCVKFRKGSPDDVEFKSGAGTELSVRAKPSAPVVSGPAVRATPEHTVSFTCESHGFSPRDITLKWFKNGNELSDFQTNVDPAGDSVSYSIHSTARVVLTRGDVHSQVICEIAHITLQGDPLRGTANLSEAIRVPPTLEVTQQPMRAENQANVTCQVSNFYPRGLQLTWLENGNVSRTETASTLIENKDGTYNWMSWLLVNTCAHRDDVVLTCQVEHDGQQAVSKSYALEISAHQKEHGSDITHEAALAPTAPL
# T10 sequence (O00241 30-398): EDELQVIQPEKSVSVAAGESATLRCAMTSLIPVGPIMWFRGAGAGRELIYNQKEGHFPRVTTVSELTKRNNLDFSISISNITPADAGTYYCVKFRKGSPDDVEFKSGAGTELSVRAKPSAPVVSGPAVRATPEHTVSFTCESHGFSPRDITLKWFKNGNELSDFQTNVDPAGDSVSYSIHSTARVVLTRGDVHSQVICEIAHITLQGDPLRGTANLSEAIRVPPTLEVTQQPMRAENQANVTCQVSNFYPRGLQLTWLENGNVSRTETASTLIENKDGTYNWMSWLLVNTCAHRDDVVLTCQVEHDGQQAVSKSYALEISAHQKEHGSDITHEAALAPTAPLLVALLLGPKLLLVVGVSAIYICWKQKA
# T8 sequence (P78324 31-373): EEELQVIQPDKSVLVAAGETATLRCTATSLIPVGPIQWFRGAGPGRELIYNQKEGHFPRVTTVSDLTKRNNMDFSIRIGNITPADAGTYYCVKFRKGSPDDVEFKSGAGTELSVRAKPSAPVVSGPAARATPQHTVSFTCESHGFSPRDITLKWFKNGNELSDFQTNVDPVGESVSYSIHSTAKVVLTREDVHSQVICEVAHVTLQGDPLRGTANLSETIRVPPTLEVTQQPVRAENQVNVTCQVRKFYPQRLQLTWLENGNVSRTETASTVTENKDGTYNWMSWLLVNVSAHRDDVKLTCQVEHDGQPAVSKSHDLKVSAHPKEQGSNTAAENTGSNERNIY
# T7 sequence (P78324 31-373): as above
# Human SIRPα v1 (antigen of the Octet and Biacore affinity measurements), sequence (P78324 31-370 limits assumed): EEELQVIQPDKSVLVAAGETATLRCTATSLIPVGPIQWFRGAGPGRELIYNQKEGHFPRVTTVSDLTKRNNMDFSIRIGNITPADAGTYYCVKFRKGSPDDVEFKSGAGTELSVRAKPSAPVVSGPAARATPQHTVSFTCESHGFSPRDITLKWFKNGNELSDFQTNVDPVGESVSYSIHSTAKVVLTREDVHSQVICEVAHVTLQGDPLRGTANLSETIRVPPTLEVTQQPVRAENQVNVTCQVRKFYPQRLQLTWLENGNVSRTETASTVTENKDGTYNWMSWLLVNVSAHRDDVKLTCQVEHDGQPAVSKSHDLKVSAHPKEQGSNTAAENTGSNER
# T4 sequence (Q9P1W8 29-387): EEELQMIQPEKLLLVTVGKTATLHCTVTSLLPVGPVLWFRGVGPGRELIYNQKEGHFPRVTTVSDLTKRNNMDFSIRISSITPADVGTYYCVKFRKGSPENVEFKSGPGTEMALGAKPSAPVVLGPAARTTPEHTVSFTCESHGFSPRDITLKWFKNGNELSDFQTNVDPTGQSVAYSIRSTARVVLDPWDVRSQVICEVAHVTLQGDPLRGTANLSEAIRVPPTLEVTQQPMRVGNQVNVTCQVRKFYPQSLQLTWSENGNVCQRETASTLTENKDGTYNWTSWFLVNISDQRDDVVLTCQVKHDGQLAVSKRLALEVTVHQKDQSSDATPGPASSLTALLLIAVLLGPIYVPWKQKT
# full length human SIRPα v1 with a small beta-gal fragment (ED) fused to its C-terminal, expressed in K562 …, sequence (P78324 31-504): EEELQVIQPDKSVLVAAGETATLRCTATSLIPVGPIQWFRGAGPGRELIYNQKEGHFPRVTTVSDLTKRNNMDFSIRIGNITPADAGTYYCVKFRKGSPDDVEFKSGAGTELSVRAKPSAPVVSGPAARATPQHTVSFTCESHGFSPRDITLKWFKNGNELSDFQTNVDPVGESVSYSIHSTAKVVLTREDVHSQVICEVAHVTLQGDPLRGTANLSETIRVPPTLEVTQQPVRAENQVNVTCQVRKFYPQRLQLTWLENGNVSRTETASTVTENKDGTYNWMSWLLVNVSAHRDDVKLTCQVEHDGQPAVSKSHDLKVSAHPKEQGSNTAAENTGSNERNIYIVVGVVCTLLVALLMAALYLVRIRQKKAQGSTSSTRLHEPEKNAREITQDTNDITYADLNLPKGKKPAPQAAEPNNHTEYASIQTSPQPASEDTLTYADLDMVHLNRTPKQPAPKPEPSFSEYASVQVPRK
# T2 sequence (P78324 31-504): as above
EC50 [1],TOP MFI [1],EC50 [2],TOP OD450 [2],EC50 [3],TOP MFI [3],EC50 [4],TOP OD450 [4],"SHP-1 recruitment blocking, IC50 [5]","SHP-1 recruitment blocking, TOP blocking (%) [5]",binding result [6],IC50 [7],TOP blocking (%) [7],Kd [8],koff [8],kon [8],IC50 [9],TOP blocking (%) [9],% Competition [10],EC50 [11],Binder,also measured
1.45 nM,69800 MFI,0.03 nM,2.75 OD450,34.1 nM,2860 MFI,0.7 nM,3.35 OD450,0.07 nM,66.9%,no binding,54.1 nM,84.4%,2.25 nM,0.00213 s⁻¹,944000 M⁻¹ s⁻¹,2.63 nM,97%,,,"059c (antibody, V domains shown, also called chimeric antibody 059c) VH: QVQLQQSGPELVKPGASVKMSCKASGYTFSEYVLSWVKQRTGQGLEWIGEIYPGTITTYYNEKFKGKATLTADKSSNTAYIQLTSLTSEDSAVYFCGRFYDYDGGWFAYWGQGTLLTVSA VL: ENVLTQSPEKMAVSLGQKVTMTCSASSSVSSSDLHWYQQKSGASPKPLIHGTSNLASGVPARFSGSGSGTSYSLTISSVEAEDAATYYCQQWSGYPWTFGGGTNLEIK",
1.9 nM,73200 MFI,0.23 nM,3.23 OD450,,,0.39 nM,2.69 OD450,0.99 nM,70%,no binding,4.49 nM,94.6%,9.2 nM,0.00545 s⁻¹,593000 M⁻¹ s⁻¹,3.6 nM,97.1%,93.9%,20.5 nM,"042c (antibody, V domains shown, also called chimeric antibody 042c) VH: QIQLVQSGPELKKPGETVKISCRASGYTFTTYGMSWVKQAPGKGLRWMGWINTYSGVSTCADDFKGRFAFSLETSATTAYLQIHNLTNEDTATYFCARDPHSYGNSPAWFPYWGQGTLVTVSA VL: DIVMTQSQKFMSTTIRDRVSITCKASQNVGISVAWYQQKSGQSPKLLIYSASNRYTGVPDRFTGSGSGTDFTLTISNMQSEDLADYFCQQYSSYPLTFGSGTKLAIK",TOP OD450 [11]: 1.22 OD450; EC50 [12]: 39.8 nM; TOP MFI [12]: 3910 MFI; % Competition [13]: 29.8%; % Competition [14]: 8.9%
2.6 nM,76500 MFI,1.53 nM,2.98 OD450,,,0.3 nM,2.66 OD450,2.97 nM,44.5%,no binding,5.1 nM,76.3%,5.97 nM,0.00327 s⁻¹,548000 M⁻¹ s⁻¹,2.86 nM,94.1%,,,"071c (antibody, V domains shown, also called chimeric antibody 071c) VH: QIQLVQSGPELKKPGETVKISCKASGYTFTTYGMSWVKQAPGKGLKWMVWINTYSGVPTYADDFQGRFAFSLETSASTSYLQINNLRNEDTATYFCARDPHYYGTSPAWFAYWGQGTLVTVSA VL: DIVMTQSQKFMSTTIGDRVIITCKASQIVGIAVAWYQQKPGQSPKLLIYSASNRFTGVPDRFTGSGSGTDFTLTISNMQSEDLADYFCQQYSTYPFTFGSGTKLEIK",
1.93 nM,74600 MFI,0.03 nM,3.22 OD450,0.52 nM,2720 MFI,0.24 nM,2.74 OD450,0.1 nM,59.5%,,5.74 nM,98.2%,3.48 nM,0.00277 s⁻¹,795000 M⁻¹ s⁻¹,1.91 nM,97.5%,82.6%,0.48 nM,"hu1H9G4 (antibody, V domains shown) VH: QVQLVQSGAEVKKPGASVKVSCKASGYTFTSYWITWVKQAPGQGLEWIGDIYPGSGSTNHIEKFKSKATLTVDTSISTAYMELSRLRSDDTAVYYCATGYGSSYGYFDYWGQGTLVTVSS VL: DIQMTQSPSSLSASVGDRVTITCRASENIYSYLAWYQQKPGKAPKLLIYTAKTLAEGVPSRFSGSGSGTDFTLTISSLQPEDFATYYCQHQYGPPFTFGQGTKLELK",TOP OD450 [11]: 1.81 OD450; EC50 [12]: 0.3 nM; TOP MFI [12]: 7140 MFI; IC50 [15]: 0.44 nM; TOP blocking (%) [15]: 97.2%; % Competition [13]: 90.5%; % Competition [14]: 14.5%
1.49 nM,80000 MFI,0.04 nM,2.97 OD450,0.09 nM,3300 MFI,0.4 nM,3.1 OD450,0.09 nM,73.5%,no binding,2.45 nM,96.7%,0.338 nM,0.000303 s⁻¹,897000 M⁻¹ s⁻¹,2.32 nM,96.4%,,,"015c (antibody, V domains shown, also called chimeric antibody 015c) VH: EVQLQQSGVEVVQPGASVKLSCTASGFNIEAYYMHWVKQRTEQGLEWIGRIDPEDGESKYAPKFQGKATMTADTSSSTAYLQLSSLTSDDTAVYYCVRGSYEYWGQGTTLTVSS VL: QIVLTQSPAIMSASPGEKVTLTCSASSSVSSSYLYWYQQKPGSSPKLWIYSTSNLASGVPPRFSGSGSGTSYSLTISSMQAEDAASYFCYQWSSYPYTFGGGTKLEIK",
